Data reported in the DeepSol protein solubility set.

Experiment: soluble on expression in E. coli; label from the status in PepcDB or PDB records

MGSDKIHHHHHHMGRLKTVKLVLLHTSFNLFYQFFYKVFGPKKGRITLATMRSGQLNDNLAALEQGLKTANVKPVTVFCYHYDRTLAGKVGFLLASIKALYVIARADVFVIDDYFFPLYAIHKHDDNQVVQLWHAIGSLKKFGLSLPNADQSVMKPHTNYDWVLINAKSDQPAYLDAMAINQDHVIATGSPMVDSLLNRQPQQPRLAARRILYSPTYRQGVQGKQQVMGYVNNMIAACQQLTGPWELYISLHPYLKLSAMTLPSNVHIFQDAERVKTLMPTIDLFITDYSSLSLTFSYFERPIILYTPDYDDYMQTSGFYVDYYQYLQAPHFSKAARVVDFINQEVDHMDLSYVHELKQKTFPHQDGHNTERVVQFVEKLAGGEH
soluble on expression in E. coli: not soluble

MELFELFILDANGVPRGKLLHRDELLAVYRSGRPLPSTILGLTMNGEDVEDSGLVWDVGDIDCRAYPLSGSLVRLPWRQIPTAAVQVSMHPSEGLPASVADPRHLLVRTIDALKSEGYHPVMAAELEFYLLDRERDANGRPQPARDADGGRPRATQVYGLRELEQIEPFLADLYAACKAQGLPARTAISEYAPGQVEITLDHGDALAAMDQAIRYKRLVKGIAHKHGMLACFMAKPFDDLAGTGMHLHVSLADEQGHNLFASDDPAGTPLLRQAVGGMLASLLDSLLLFCPNANSYRRFQANSYAPLAQTWGVDNRTVSLRVPGGPASSRHIEHRICGADANPYLAAAALLAGVHRGIREGIDPGAPVEGNGYAQAGKRLPTDWLTALDTLQGSEWAREAFGEPFLGVYLAVKRAEYRQFMGEVGEQDWRWYL
soluble on expression in E. coli: not soluble

MAHHHHHHMGTLEAQTQGPGSMSVFSGFPASPPDAILNLTVLYNADTNPKKVNLGVGAYRDESGKPWILPAVKEAEAIISSDLSKYNKEYPPVAGFPLFLEAAQFLMFGKDSKAAQEGRIASCQSLSGTGSLHIGFEFLHLWMPKAEFYMPSTTWPNHYGIYDKVFNKLKVPYKEYTYLRKDGELEIDFSNTKKDIQSAPEKSIFLFHACAHNPSGIDFTEAQWKELLPIMKEKKHIAFFDSAYQGFATGSFEADAFAVRMFVDAGVEVLVAQSFSKNFGLYGERIGCLHVVHAGVEGSVEKNKALSAAMVSGMTLQIRKTWSMSAIHGAYIVQVIVHDKRLLQMFYDNVKEMSARIHRMRSLLHASLAKRKTPGPGSKGTWDHILTAIGMFTFTGLTPEHVDYLKEKWSIYLVKAGGRMSMCGLTESNCDYVAEAIHDAVTKLPFKK
soluble on expression in E. coli: soluble

PVMADTIKLRIVETTDIHTNLMDYDYYKDKASDQIGLTRAATLVKQARAEVENSVLVDNGDLIQGSPMGDYMAAKGIKAGEVHPVYKAMNPLGYDVGNIGNHEFNYGLEFLKETINDAAFPYINANVFDAKTGQHLFTPYVIKEHSFKDTDGEAHTIKVGYIGFVPPQIMVWDKKNLEGKVTAADIKQTAEKLIPEMKAKGADVIVAIPHSGISTDEYQAGAENSVYYLTQVKGIDAIAFGHSHAVFPGKDFANVPGADIDKGTINGVTAVMPGRWGSHVGVMDLTLEKQQGRWAVTSGQSEARPIFDKANKKALVEADATMVQALQHDHQGTRDFVNQ
soluble on expression in E. coli: not soluble

RLLKVPVFVHESDLSMGLANKIAYKFATIMYTTFEQSKDLIKTKHIGAVTKVMDCKKSFENTDLTSIKEAFDPNLKTLLFIGGSAGAKVFN
soluble on expression in E. coli: not soluble

IEETGTVIIAGIGRFGQIVNRLLVSNGVTTVVLDHQANQVDNMRQIGTRAYFGDATRPDMLHTAGIEHAAALVVAIDNQESSVELVKYVKHTYPKVKIIARAFDRGHGYLLRQAGADVIESETYHSALEMGGHAMKALGI
soluble on expression in E. coli: not soluble

MSLAHYKKFRLSTLAAVVGIVLAVGPENSYAEAPIQFNTRFLDVKDDASLDLSRFSRKGYIMPGSYHLQVLVNQSQIVQDNVITYSVDNNDPDNTYPCLSPELVSLLGLKPEIADKMIWINAGQCLQPDQLEGMETQTDLSQSTLTVIIPQAYLEYSDEEWDPPSRWDEGIPGVLFDYNVNSQWRHAEHDDGDEYDISGNGTVGANLGAWRLRADWQANYRHENDSEDKDNFGSSSEQNWDWNRYYAWRAIPQLRAQLTLGEGSLESDIFDGFNYVGGSLITDDQMLPPNLRGYAPDISGVARTNAKVTVTQRGRVIYESQVPAGPFRIQDINETVSGDLHVKIEEQSGQVQEYDVSTASIPFLTRPGQVRYKLAAGRPQDWDHNMEGGFFTSAEASWGIANGWSLYGGAIGEQDYQALALGLGRDLALLGAFSVDVTHSRATLPEGSAYGDGTIQGNSFRASYAKDFDDIDSRLTFAGYRFSEENYMTMDEFIDTHNDDNDRQRTGHDKEMYTLTYSQNFSAINVNAYINYTHRTYWNQPNQDSYNLTLSHYFDVGEVRGISLSVNGFRNEYDNERDDGVYVSLSIPWGNNRTLSYNGSFSDDNNSNQVGYYERIDDRNNYQINAGRADNGATLDGYYRYQASYADIDVSANYQEGDYTSGGLNIQGGATLTAKGGALHRTSVNGGSRLLVDVGDEANVPISGYSTPVYTNAFGKAVIVDVNDYYRNQVKIDITQLPEDAEAILSIAQATLTEGAIGYRRMEVLSGKKAMASIRLRDGGTPPFGAEVYNSRQQQLGIVGEDGSVYLIGINPGERLQVTWEGKTQCEATLPDPLPGDLFSGLLLPCIGDASSPEATQPEEKPLLQLHTQRRTSSTQPEALSSRYPTHEGGSHHHHHH
soluble on expression in E. coli: soluble

MSETLIIRFNVGGTPMATLKTTFPVDSIFHKWFVSRTKASPFTSDRDGAYFVDRDPFSFGVVLNYFRLRKAGQLWEACLPKDPDRLAMLTQEADFFLLPQLRDQAICMLQLCSNKNDSNYINEMLAKSTSCPQGFDKKEEEDEEDF
soluble on expression in E. coli: not soluble

NLYFQSARFALTVVRHGETRFNKEKIIQGQGVDEPLSETGFKQAAAAGIFLNNVKFTHAFSSDLMRTKQTMHGILERSKFCKDMTVKYDSRLRERKYGVVEGKALSELRAMAKAAREECPVFTPPGGETLDQVKMRGIDFFEFLCQLILKEADQKEQFSQGSPSNCLETSLAEIFPLGKNHSSKVNSDSGIPGLAASVLVVSHGAYMRSLFDYFLTDLKCSLPATLSRSELMSVTPNTGMSLFIINFEEGREVKPTVQCICMNLQDHLNGLTETR
soluble on expression in E. coli: soluble

DVRGMSQSVGAVVRGFATADPHVRIAGVILNKVGTDRHAEVCREAVEAVGVRVLGAIPRVDHAEVPSRHLGLITSVELDAAEDAVAAMATMVEEHVDLNALIELADCAYNGPAWDPALAMGMSDAEALDN
soluble on expression in E. coli: not soluble

MCIMCELKNFRRNITCFEGYDENSFIGKWYDDGVWDDEEYWKLENDLIEVRKKYPYPMDIPRYVVIGIGTIIDFLMVPNWKLFEIKASPWLPDSVGINERYERLKTMLRYIFTEKDIVNVQFDYYNKK
soluble on expression in E. coli: not soluble

GPLGSEVMGPVEAAPEYRVIVDANNLTVEIENELNIIHKFIRDKYSKRFPELESLVPNALDYIRTVKELGNSLDKCKNNENLQQILTNATIMVVSVTASTTQGQQLSEEELERLEEACDMALELNASKHRIYEYVESRMSFIAPNLSIIIGASTAAKIMGVAGGLTNLSKMPACNIMLLGAQRKTLSGFSSTSVLPHTGYIYHSDIVQSLPPDLRRKAARLVAAKCTLAARVDSFHESTEGKVGYELKDEIERKFDKWQE
soluble on expression in E. coli: soluble

MSLKILFASSESYPFIKTGGLGDVSYALPKALRKIGIDARVIIPKYSDIPEYFRYNTHHIASFGVPVGWRSQYGGLEYYEYDGVPFYFIDNDYYFKRSGLYGYYDDGERFAYFSRGVLQAITYMQDFNPDIIQCNDWQTAIIPVLLKDHYRNYRNYNHIKTIFTIHNLKYQGVFGKSVLGELLCLNEGYYNENALKFYDGISFMKGGILFSDKLSTVSRTYAEEIKDPYYGEHLDGLLRSRSYDLWGIVNGIDYDILNPETDKDLFFNFDSSTLYNKTKNKIELQKMLNLPVSENIPMIGIVSRLVSQKGLDLISCVLEDLLQDGIQLVVLGTGDAKYENMFKYFAWKYPNKLSANIQFNNSLAQKIYGASDMFLMPSKFEPCGIGQLIALRYGSLPIVRETGGLKDTVRPFNPITGEGNGFSFTNYNAHDMLHVIRNAEYFYYNEKYNWNKLVQTAMNDDNSWSKSAEIYRNLYMSVLEGHHHHHH
soluble on expression in E. coli: not soluble

MQQIFFKDPILGEVLFDQQTKWMYELVETEAFRRLRNIKQLGINFHFYPGGVHTRYSHSLGVYELLRRILNTPAFAPIDENKKQTVLVAGLLHDIGHAPHSHAFEIYFAKAPNFKKELFIHEEVTTLFVNSEPIKSILKANQIDPKLVAALIDENKELKPSNYWMRQLISSDLDADRMDYLLRDSYFTGTSHSLIDYQTIIKEMDCVKVKGIYEIFFKDKCLPLIENFLITRHHMYQSIYSDGRSISTELNLWFVFQRIKDLVDKNQFDFNGYKTLEQVCLPLLKNEHFDKKMLPAFVKLDDYVFQSFFVNLYQTTKDKILKKLLDSYLNSLKFEIKFYETKEQRDLDFEKQASKYKDAKYFITKFNNQFKGFYEGWSSHKNELKIKTMQNKHTNLSEISMLVKRSNELFFENALYKWANVFYRL
soluble on expression in E. coli: soluble

MAHHHHHHMEGVSNILSIAGSDSCGGAGIQADIKTAMGLGCHCCTALVVLTAQNTKEVKRIVEIEEAFIVDQLDSIFADVTIDVVKLGVLYSKKIISLVSQYIVQMNKKRGKKLLVVFDPVFVSSSGCLLVENLEYIKFALDLICPISCIITPNFYECKVILQALDCQMDLSKANMTELCKLVTRMLDINACLLKSCNVGENSAEENEVYAVDHLCIRKVGSIPEGEVIQRDAGELGQSAPGGVTYLYDVYKLRSKRKPGVDVHGTGCTLSTAIACYLAKKHNILQSCIESKKYIYNCIRYAYPFGSKSQGLNHLKASQELPTFTDLEVIPIVQDSP
soluble on expression in E. coli: soluble

GMIEKVYEFKRDAKTKVVEKLVNTEHVQINHIVLPRGEQMPKHYSNSYVHLIIIKGEMTLTLEDQEPHNYKEGNIVYVPFNVKMLIQNINSDILEFFVVKAPHPKKLNAPEDPIKCE
soluble on expression in E. coli: soluble

MAHHHHHHMSDTRDVAQPRRGSFASRKARGETGGSKSSSSSSKNKEHSYDARRYHQNANTHGIHALRTFDCPVCDSKNTIRVTLNPRLGEGTVSCTYCCSLRPAPPDLPYPSVQRFVPSLENRADVFFRFNEQYAALLRQHKSERVGESVDPSSCLATVDNTRKRANKDDGESGGRARGPRGESRDEDGLFGDCALHMDTGLFDNAVDQHVTGTLAMLGSDDDGGSNTVADADPGNPKGVSTPSPPRPDGADMPESDFMNVAVIAGVDEAFAAHAADGVDGMGEADAEEVDVAAFFADSD
soluble on expression in E. coli: not soluble

MGSDKIHHHHHHMKVLHVNAGLENGGGLSHIVNLLTEAKRENKDFDLLTLADGPVAAAAREHGINTYVLGAKSRYNLASLKKLIKFINDGHYDIVHTHGARANLFLSLIHKRISAVWCVTVHSNPYLDFEGRGFLGKVFTKFNLRALKKADCIFAVTKRFANLLVNQTQLDKNKVHVIYNGIFFHNDSEIPAKYEHTYFNVINVARTEKVKGQELLLKAVKKLNDQHIRLHIAGDGSQLEPLKALTRQLNMAPQVTFHGFMTHHQLSGLYKRIDLAVLTSYSESFPLVLLEATDNLIPILSTDVGDIHKMIPGPKYGFIAKTGDIDSIAKQLELAVNKTTKQLREMAYTEKRYAEEHFSVKNQLADIEKVYSTLI
soluble on expression in E. coli: not soluble

MQAYSNPGYSSFPSPTGLEPSCKSCGAHFANTARKQTCLDCKKNFCMTCSSQVGNGPRLCLLCQRFRATAFQREELMKMKVKDLRDYLSLHDISTEMCREKEELVLLVLGQQPVISQEDR
soluble on expression in E. coli: soluble
